Laboratory results taken from the supplement of paper PMC12042874.
± gives the uncertainty stated by the source.

Assay: amyloid nucleation score (Sup35N fusion, yeast selection) (log enrichment); library NNK1; higher = more nucleation; inactive = no reads after selection
In short: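 Using DiMSum, nucleation scores were taken as the log enrichment of output over input reads, centred on the mode score of non-aggregating sequences. The input and output reads came from Illumina sequencing of plasmid inserts, with sequences under 100 input reads excluded. The yeast were psi-negative, expressed Sup35N fused to peptides of 20 random codons, were induced with 100 μM copper sulfate for 24 hours, and were grown 7 days at 30°C on medium lacking adenine and uracil.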

Row | Substance | amyloid nucleation score
1 | RISSVT | 0.17 ± 0.86
2 | RITAVRGVCLFSADSV | -0.175 ± 0.26
3 | RIVEGWDTLSFLFRKGCEFF | 1.2 ± 0.56
4 | RKAIFTSFSQ | inactive
5 | RKCEDGFWGKRDSATKGP | 0.034 ± 0.29
6 | RKCLESTTRSFLAVRS | 3.3 ± 0.097
7 | RKDVLEGADSMTMVRRSSLF | -0.286 ± 0.35
8 | RKFRNKAIISIIDVYRPAAI | 1.01 ± 0.62
9 | RKIVYVYEDVVRLNTCRISS | 0.034 ± 0.93
10 | RKRPTGTHAVDVSRGFT | 1.27 ± 0.71
11 | RKTNLGWHSICRA | -0.435 ± 0.28
12 | RLAQYHMYIKFETGYN | 1.23 ± 0.36
13 | RLAVKDNVCKLDMMSGCCLS | 5.45 ± 0.059
14 | RLCPENLRTNFKCVLNFMVT | 4.81 ± 0.12
15 | RLCPSCLVKWMTLWFVWIVR | 0.769 ± 0.41
16 | RLCVVRDRFIGPIRRAFLHP | inactive
17 | RLDSPDVVSAFCEAALASAS | 0.136 ± 0.76
18 | RLEADYLTVIESVGHSATGS | inactive
19 | RLFLVEFIWNMR | 0.958 ± 0.71
20 | RLFYTRSDSGGVRLVVLAVG | 0.003 ± 1.2
21 | RLGHDRIFSIRNSQS | -0.287 ± 0.58
22 | RLIFEVFYLTFRVLT | -0.457 ± 0.39
23 | RLLCCFCTWTLQMFCYSGCC | 5.981 ± 0.053
24 | RLLFLFVHVSYGI | 0.014 ± 0.47
25 | RLLPYILMTFLHEYVGAGYE | 0.561 ± 0.37
26 | RLMNFE | -0.257 ± 0.43

Row | Substance | amyloid nucleation score
27 | RLQSKLLHCS | -0.169 ± 0.45
28 | RLSLETIVASFIYCCCAKFA | 1.66 ± 0.5
29 | RLSVVDELLCVLILGFRCYT | 0.372 ± 1.4
30 | RLVESRLCASCVDGG | -0.166 ± 0.46
31 | RLVLNCRYNYCSREFVFYAV | 0.292 ± 0.35
32 | RLVNPRDCKFNDTRTFCSRR | 0.118 ± 0.52
33 | RLVTYPSVLSSVSEGSGRGG | 1.05 ± 0.66
34 | RLYLNDNTLSCF | -0.001 ± 0.22
35 | RMFVGWHSLERIL | 1.21 ± 0.43
36 | RMMSVGALGQG | 0.323 ± 0.76
37 | RMRATLDLSFWFGKEQYARV | 0.389 ± 0.45
38 | RMYIHMYS | 1.32 ± 0.33
39 | RMYYT | -1.52 ± 0.82
40 | RNFLNAYW | -0.307 ± 0.85
41 | RNGLALRLTNTTRSTYLSRQ | -0.166 ± 1.1
42 | RNIWNLVLDKNAHMNCFMTH | 0.087 ± 0.46
43 | RNNSVLLLSSYANKRYSPAW | -0.439 ± 0.78
44 | RNQFDYDRWYVMRSHYRVIC | -0.526 ± 0.58
45 | RNQRSSMWVGNRCYGGRCVW | 0.898 ± 0.93
46 | RNTVGYVSNTGVLYILTS | 6.24 ± 0.067
47 | RNWCIMFLTYVL | 3.74 ± 0.083
48 | RPAKLMAMPKILIGPH | 0.131 ± 0.26
49 | RPNMVNVKNSRRFSL | 0.257 ± 0.48
50 | RQAFIRGGLEAAKGAYHVLG | -1.38 ± 2.4
51 | RQPANEELPFSVTGK | -0.892 ± 0.65
52 | RQTLEKF | -0.168 ± 0.28

Row | Substance | amyloid nucleation score
53 | RQVRMGFPGFWFMVIDYCRS | 0.499 ± 0.39
54 | RRCMLLYCGLGAGALGSDGR | -0.539 ± 1.1
55 | RRCSEM | 0.853 ± 0.4
56 | RRENIP | 0.01 ± 0.42
57 | RRFEWFAGHCGIVDLPLGVG | 0.568 ± 0.97
58 | RRGAKRSLWLIRNLWWDKSK | inactive
59 | RRHAHLWLYLGNLGCWLEEV | -0.139 ± 0.38
60 | RRLHMLVNHLKCAGATRGGR | -0.172 ± 0.34
61 | RRLPA | -0.091 ± 0.9
62 | RRLTRIIKAKL | 0.018 ± 0.78
63 | RRLYSKKILRDWLASSFSTD | inactive
64 | RRMKFDMSNGRQGSLVNHGR | 0.214 ± 0.53
65 | RRMTDLFV | -0.354 ± 0.3
66 | RRPNETS | -1.08 ± 2.4
67 | RRRSLLLVWRMTVGWVWGWD | -0.215 ± 0.62
68 | RRTIYASLRLY | 0.066 ± 0.29
69 | RRVLRTSKNSSLMDFYATIE | 0.299 ± 0.79
70 | RRYEFKRLGSMSDGVTLRSM | -0.759 ± 0.5
71 | RRYVICNYCLYSRV | 1.12 ± 0.33
72 | RSCITESRRHIWRTGMVEKW | 0.716 ± 0.48
73 | RSFEGKRFNVGWLFASATFM | 0.157 ± 0.46
74 | RSFSECLMSGHTIFQFGMYM | 4.26 ± 0.14
75 | RSFTVCEFMFLFRLWDNSAY | 0.11 ± 0.9
76 | RSGGTSSTALQQQLRFNRTR | 0.581 ± 0.33
77 | RSLPNPL | -0.29 ± 0.42
78 | RSSILMVVVANHSIIVTRGV | 3.04 ± 0.13

Row | Substance | amyloid nucleation score
79 | RSSKGIPLMENPLVYTMASR | 0.005 ± 1.7
80 | RSSMPRSWAVWPRWE | 0.176 ± 0.71
81 | RSSWKVLKRFRVVRERHEIT | 0.257 ± 1.1
82 | RSSWQMSPNMLLTNLNCCSS | 6.367 ± 0.047
83 | RSTSF | inactive
84 | RSVPCPYYGLL | 0.033 ± 0.66
85 | RSVSLC | 0.907 ± 0.61
86 | RSVSLNRSTRRRR | 1.1 ± 0.41
87 | RSVYFIYTWIWQVSAVIFLC | 0.107 ± 0.2
88 | RTFGYGHHIAGGCRDYRVYR | -0.373 ± 0.62
89 | RTFTGRDGCVKDVCTPHFEM | 0.632 ± 0.9
90 | RTICKVIFVSEVKSLFWNMS | 1.87 ± 0.41
91 | RTINMQLVTLYLTSRVVDNF | 1.1 ± 0.47
92 | RTLFIRSLVYFVLSSFIFAV | -0.004 ± 0.36
93 | RTLGFLRCFIITSVDSTKNA | 0.514 ± 0.8
94 | RTLLSFNRDVSFEGQPPGWL | 0.352 ± 1
95 | RTLMRLN | -0.762 ± 0.41
96 | RTLPSG | -0.12 ± 0.19
97 | RTPFNVDPKPTDPRNTRCST | 0.822 ± 0.93
98 | RTRSGRVICNGFPRYSTTAA | inactive
99 | RTSPSYGIPNWAELLRVE | -0.311 ± 0.69
100 | RTVQSGHSSARCKIIGPYHD | -0.077 ± 1.7
101 | RVAPKGNRARDHVDSSSECS | 2.14 ± 0.18
102 | RVCCWHFTFVTVCCKLLSMT | 1.93 ± 0.23
103 | RVGEKSVEWPAFLRYLMKWF | -0.008 ± 0.5
104 | RVGNNLNFM | -0.915 ± 0.3

Row | Substance | amyloid nucleation score
105 | RVGSFMVNPSSCMSYAFWLR | 0.443 ± 0.49
106 | RVHSIDENVWMVQGQNSRAG | 3.73 ± 0.16
107 | RVLDLKWPCYMGSVNLASRR | 0.016 ± 0.74
108 | RVLRQMKSIC | -0.44 ± 0.83
109 | RVNTCMSRGRA | -0.367 ± 0.61
110 | RVNYIHD | -0.057 ± 0.46
111 | RVRLTFCCLMAVRSRSMISK | 0.436 ± 1.2
112 | RVRSSMCGALWARKFYRTHI | -0.116 ± 0.49
113 | RVVRSATADITACMSLNIYR | 0.879 ± 0.56
114 | RVWYCRGMCRP | -0.239 ± 0.93
115 | RVYMFLARFGRESGWSVRQW | 0.169 ± 1
116 | RWCLVSGMILCSLLCVYSFN | -1.62 ± 2.4
117 | RWCVVSEKTFCINYTRLSFA | 0.888 ± 0.23
118 | RWIFSSWLLDGILGERCQTV | -0.484 ± 1.1
119 | RWMELMALSRKTPGRQKARC | -0.745 ± 1.5
120 | RWRKVGIKEGLIMLESGVSR | -0.921 ± 2.4
121 | RYCVHIWRCDSLNHHN | 0.349 ± 0.41
122 | RYDTNMFFSCCT | 5.591 ± 0.054
123 | RYEMSVHGV | 0.391 ± 0.66
124 | RYFCAIWLGCGERRSRVSKW | 1.38 ± 0.34
125 | RYFNGYITGNLNSASNARSS | 1.81 ± 0.18
126 | RYMSHGIGGTPV | 0.142 ± 0.69
127 | RYVSLDRPYTSNNNRYAKGV | 0.475 ± 0.22
128 | SACNLPACRSNKLAGRGRVM | 0.408 ± 0.42
